Data published in paper PMC7031110 (Cell, 2014).

Target: CaMKIIα (UniProt P11275 1-478)
Assay: fluorescence polarisation

CaMKIIα, sequence (P11275 whole entry): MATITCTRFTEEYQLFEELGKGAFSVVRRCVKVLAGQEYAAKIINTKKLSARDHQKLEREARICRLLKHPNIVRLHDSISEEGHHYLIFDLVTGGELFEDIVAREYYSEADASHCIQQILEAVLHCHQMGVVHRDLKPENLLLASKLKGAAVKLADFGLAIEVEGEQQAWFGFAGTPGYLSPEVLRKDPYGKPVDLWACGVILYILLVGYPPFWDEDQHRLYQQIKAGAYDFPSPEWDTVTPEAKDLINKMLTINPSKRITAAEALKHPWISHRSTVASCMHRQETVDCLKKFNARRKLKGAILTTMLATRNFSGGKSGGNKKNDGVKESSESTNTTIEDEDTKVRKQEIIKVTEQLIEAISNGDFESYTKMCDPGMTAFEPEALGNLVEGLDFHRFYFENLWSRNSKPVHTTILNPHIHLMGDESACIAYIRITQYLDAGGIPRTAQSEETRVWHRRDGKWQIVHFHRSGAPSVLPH

Kd: 31 ± 7 nM
B1: IQ peptide TVGKFYATFLIQEYFR of Cav1.2/Cav1.3 (peptide)
peptide: TVGKFYATFLIQEYFR
